Data on three sequences can be found in PMC3136212.

The data set deals with RPA (full-length heterotrimer RPA1/RPA2/RPA3) (human) (UniProt P27694+P15927+P35244). The experiment in a line: FP. Also on record: unit not given here. Conditions: 18-carbon spacer (sp18) at 5' end; FP: 0.060 uM FAM-oligo, 10-1500 mM NaCl, room temperature; CD: Buffer A 25 mM Tris pH 7.5, 2 mM MgCl2, 6% glycerol, 1 mM DTT, 100 (or 10) mM ….
Sequence of RPA (full-length heterotrimer RPA1/RPA2/RPA3) (human) (P27694 whole entry, chain 1 of 3): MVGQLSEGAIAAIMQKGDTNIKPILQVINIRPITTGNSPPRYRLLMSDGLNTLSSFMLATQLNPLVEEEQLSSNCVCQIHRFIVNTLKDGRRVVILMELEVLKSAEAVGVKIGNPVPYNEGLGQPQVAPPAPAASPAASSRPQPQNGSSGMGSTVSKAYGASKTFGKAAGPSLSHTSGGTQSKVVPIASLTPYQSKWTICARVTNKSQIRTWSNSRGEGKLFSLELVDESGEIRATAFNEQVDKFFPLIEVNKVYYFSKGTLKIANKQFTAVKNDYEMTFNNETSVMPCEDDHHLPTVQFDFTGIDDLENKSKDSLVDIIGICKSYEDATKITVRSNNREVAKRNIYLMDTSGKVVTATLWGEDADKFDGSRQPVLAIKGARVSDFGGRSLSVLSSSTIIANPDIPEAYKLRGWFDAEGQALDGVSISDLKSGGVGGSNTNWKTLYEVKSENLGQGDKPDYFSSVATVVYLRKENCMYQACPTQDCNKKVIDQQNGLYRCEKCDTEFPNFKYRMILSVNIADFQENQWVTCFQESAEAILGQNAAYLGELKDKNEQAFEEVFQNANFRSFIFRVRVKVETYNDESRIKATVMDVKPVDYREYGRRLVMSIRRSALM
Sequence of RPA (full-length heterotrimer RPA1/RPA2/RPA3) (human) (P15927 whole entry, chain 2 of 3): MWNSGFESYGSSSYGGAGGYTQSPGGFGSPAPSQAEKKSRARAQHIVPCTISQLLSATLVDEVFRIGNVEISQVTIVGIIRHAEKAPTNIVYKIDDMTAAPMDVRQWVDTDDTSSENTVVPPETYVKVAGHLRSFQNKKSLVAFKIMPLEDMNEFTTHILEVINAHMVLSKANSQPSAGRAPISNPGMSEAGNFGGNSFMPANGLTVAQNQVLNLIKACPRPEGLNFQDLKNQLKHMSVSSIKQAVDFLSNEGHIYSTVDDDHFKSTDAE
Sequence of RPA (full-length heterotrimer RPA1/RPA2/RPA3) (human) (P35244 whole entry, chain 3 of 3): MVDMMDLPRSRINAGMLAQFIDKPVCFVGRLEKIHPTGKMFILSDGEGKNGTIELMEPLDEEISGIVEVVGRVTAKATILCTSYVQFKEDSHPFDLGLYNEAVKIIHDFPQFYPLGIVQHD

In turn, AAAAAAAAAAAAAAAAAAAAAAA [polyA] registered a Kd of 0.07.
The figure for TAGGGGAAGGGTTGGAGTGGGTT [Gq23 (FP)] is 0.05.
As to ATCCCCTTCCCAACCTCACCCAA [Anti (Comp)], the Kd amounted to 0.07.
